The data set addresses T1, MBP-GlnR (Mycobacterium smegmatis (SMR5?)) (UniProt A0R4C4).
T1 sequence: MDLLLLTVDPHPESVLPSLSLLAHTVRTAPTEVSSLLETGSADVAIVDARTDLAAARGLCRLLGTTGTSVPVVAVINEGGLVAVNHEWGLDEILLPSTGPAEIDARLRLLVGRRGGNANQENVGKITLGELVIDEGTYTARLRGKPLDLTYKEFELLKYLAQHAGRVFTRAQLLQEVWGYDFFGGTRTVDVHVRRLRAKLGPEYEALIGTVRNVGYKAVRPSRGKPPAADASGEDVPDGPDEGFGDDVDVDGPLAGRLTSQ
Description: EMSA. As to conditions: GlnR: DIG Gel Shift Kit (Roche) buffer, 6% native PAGE, 0.5x TBE; AmtR: 20 mM Tris-HCl pH 7.9, 25 mM KCl, 1 mM DTT, 5 mM MgCl2, 0.5 mg/ml BSA, 5% glycerol ….
For the sequence “AACGGTGTGCTTCCTCCGCTGTAGGTGGATCACCGCGTGAAGCGGGTGACCGGTGCAGGGTCGGCGCAACTTACTGCGCTTGGAAAATGCTCGCGCAGGAACGTTTCGGTGGATCCCGTCGGCAATGTCGGTGACGTTAACTCTGCACGGCCCCGCGTTACGTTGTGGTGACCTGACGCAACGGATTTCGTTGTGTGTCCGGTAGGCCCGCGTGACGACGAACCCGGCCGGCCGATGTTCGGCCGACCGGGTCGTCACGAGGTCACGGCTA (double strand) [msmeg_2526 upstream]”, the binding result is reported as “binds”.
In the case of “AGGCTTTTCGCCGGCTGCTGTGATCACACCAAGATCGTCGGCGCAGTCGATGACCTAGATGTTGTCGTGAAGTTTCAAGAATGTGACGTCATCAGTCGGCGGCTGCGTCGACCGCCAGCAGCAGTCGCAACGCGCCCGCATCGCGAGGGACTGCCGGGTCGAGGCCGGTACTGCTGGTCACCCTGGCCAGTCGGTTGATGACGGTGTTGCGATGGCAGTAGAGCCTGCGAGCGGTCTCGGTGACGGAACCGGTGTCGAGATAGATGCGCAGCGTGTCCGTGAGCAAGGTCTGATCGCGCG (double strand) [msmeg_3400 upstream]”, the binding entry was “binds”.
For “CAAACATCTCCTCACGGTGGCGGCTCGAAACAAGCCGTTCACTCGCAGTAACCGACGTTTCTGTTACGGAGATGGTCGCCAAGTGTTGCAGCGTGGTTAAAACTCAAACCGCGCTTTACAGCGGGTTGCCCCATCGGCCCGTGAACGCAACCTGCTCAAGTGCCAGACGTTCACGCGGGCGGCTGTCGCGTTCGGCGATGGCCTCGTCGGCCGTCGCGTAGTCACCGAGGTGTCCCAGCG (double strand) [amt1 upstream]” the value was “binds”.
For “CATGTGCCACCGTCGCGGCACGCGCGCCGACGAGTTCGCGCGCAGCCGCGGGCAGTTCGGCCGTGGCGGCGCGCAGACCGGCCACCGAGGTCGCCGCGTCGATGTGGCGCTGCACGAGGTCGGGGGCGGGCATACCGGCGATTGTGACAGGCCCACGGGCGGTGAGGGTTCTGCAACCGAATGCTTACCGACGGCTACATGAACGAAACATTCGGGTGACGCCGAGGACACGCGCCCATTGTTATCTGTCATCTGACAGGTAAGAGCTGGCGGCAGCGCCCCTAGCCAGAGAGAAAACCC (double strand) [msmeg_2184 upstream (GlnR probe)]” the value was “binds”.
Under “CCAGTCCAGGAAATCACCGGATATCGGCTGGCGCGTCATTTTGACGGAAAACGTGGGGTACGCCGTTTCGCCGGGTCACCTCGGCGAACCACCGTGCGCTGGCCTTGGGCGTGCGGACCTGCGTGGCGTAATCGACGTGGATCAGGCCGAACCGCTTGGCGTAGCCGTACGCCCACTCGAAGTTGTCCAGCAGGCTCCACACGAAATAACCGCGGATGTCGGCACCATCGTCGATCGCCCG (double strand) [narK upstream]” stands “no binding”.
For the sequence “CCCAGCTCGCCACTCTCGATGGTGGCCAGCACCAGGGACTTCTCGGGCACGAACCCGAGCACGGCGGGCAGCGCCGCGATCAACGATCCGGGCCGGTTGATACGAAAATCCGGTGTGTGCGGTGAAGGTGTCATGTGCCGACCGTGGCAACCGGCGCCGACGCCGTTCACCCCGAAAACCGGCTGCGACGAGTGGCTGTGGACGAAATCGGCTCTGGGGACAACTTCCGAAACAAACTGTTCACGCGCCATTGCGCGTCTCCGGCGTGCACGCGCGCCGACAGCGGCGTACACACTGACC (double strand) [msmeg_2748 upstream]”, the binding result is recorded as “no binding”.
As for “CCGCGACGTCGACCGCGCGCCCGGTCACCGGGCCCGGACCCGGCAAGGTGGTCGTGGTGTCGACGACAGGGGACCCGGCGACGCCGTACCAGGCCGGTGTGGACCTCGCCCGGCAAATGGGCGCGGCCCTGATCAGTTTCGACGGTGCGCAGCACACCGTGGTGTTCAACGGAGATGCCTGCGTCGACACCGCGGTGTTGCGCTTCCTGACCGATCTGCAGTCGCCCCCGGGCAACCTTGCCTGCTAGCTCTTGCACCCCCGTAACACAGATTTAACAGCCGGTGCATACGCTGCGGAGC (double strand) [glnA2 upstream]”, the binding entry is “binds”.
Under “CCGGATGTTCCTTTCAGCTCTGCAGATTCGGGTGCCGTCAGTCCCAGTGCGCCTTGAAACCCAGTGCCGGGACGGTCTCCCCCAGCCCGGGTGTGGAGGCCTTGCGGATCAGGGCCAGTGTCTCGGCATACGTGGTGTGGTTCTCCGCGAGCCGCTCGGCGGGCACGGGCAGGCCCGCGAACTCGAACGCCGCGGAAATCTGTTCCTGCGATGGCATGAAATCGGACATGGTTCTCCTCGCTCTCAGAGGTTGGGGGTGAAGTCGACGAAACCGGCGATCCGCTCGAAGGCCCGGCCTG (double strand) [msmeg_1090 upstream]” stands “no binding”.
With “CGGGGTCATCGGGCGGTCCGGCACGCCCGGCAAGGCCTGGGCCTGGCAGACCCGCTCGTGGTCGAAGGGCAAGATCCACCCCGCGGCGGTGCTCTATCAACACACCATCGACACCGCGTCGAACCCCGGACCGTTGGTCGGCGGCATCCGCGTGGATGTCAACGACGCCTTGGCCCAGGACATCGGCCAGTGGAATTTCCACCCCTGAGGTCACATCACTTTAATCTCGACGCAATTGCGTTGCCATACCGGTGATCTCTACTGAAGGCGCCAGCAGCCCCCTTCAGAGGACACCCGCCC (double strand) [msmeg_6816 upstream]”, the binding entry is listed as “no binding”.
For “GAACAACCTTTCCCGATGATTGCAGCGCATTTTGGGCCGATCGCCTCGGCCGCGGTGCAGGAGGTTAAACACACTGTGCTGGTGTCGAATCGGGACGTTAGAGCGCGCGTGTTACTGCCAAATGTCTGTGTGTGACGAACAAATTAACCTCGACATGACATGCCGCTGGTTTGCCGCCGGTTCTCGACGCCGTGACACCGGCGTGGCGTGTGTAACGGGGAGGTAGCCTGCGTCGATATG (double strand) [urtA upstream]” the value was “binds”; for “GCCCTCCGGGCGGTATCTGCGCCTGAACTTCTCCGGGCCGGAGCCGGACCGGTTCGAGGAGGCGGCGCGCGTGATCGGACGGTCGCTGCGCAGACAGCTGTGACCCGGCGGTTGTGGCCTGACTGTGGTCCGGAGAGCTCACCGGTCGGGGACCTCACATGTGCGTTGCCGAAGACGTGAGCACACCGTGATGGGGGCTTCACACAGCGCGACATCGCGGCAATATCGGGTTCTTAGCCTCGCCCTATG (double strand) [nirB upstream]”, “no binding”.
For the sequence “GCGAGGCAGACTAGCGGCATGACCGATGACGGCTACACAGTCGGTGACTACCTCCTGGACCGGCTCGCCGAACTCGGCGTGACCGAGGTCTTCGGCGTCCCCGGCGACTATCAGCTGGAGTTCCTCGACCACGTCGTGGCGCACCCGCGCATCACGTGGGTCGGCGGCGCGAACGAACTCAACGCGGGCTACGCGGCCGACGGCTACGGCCGGCTGCGGGGCATGGCGGCGTTGGTCACCACGTTCGGCGTCGGTGAGCTCTCGGCGGCCAACGCCATCGCAGGCAGCTACGCCGAGCAC (double strand) [msmeg_5734 upstream]”, the binding result is “no binding”.
For “GGACCGGGACCGGATAGCCAGGATCCCAACCGGGAGCCGTTTGTGCGGGCCATGATGTCAGGATAGGCGCGTGCGGATGTCCGGCCGCCGGGTGCCACGTCGCGACGCGGTTCACACCGATGTGTGCTGGAGTTCACCGGCGGACACGCTCAAACCGATTGCGTAACGTCGGCGCAACATCGGGTTGACGACTGCGCAACATCGTGTCCTTAGCGTCAACGCGCGGGTTACCAGTAAAGGAGAACACTCA (double strand) [glnA upstream]” the value was “binds”; for “GGGGTCACCACCTGCTGCTCGGCATCCACCATGTATCCCAGGAACGCACCGGCCCGGCGCGAAACGTGGTAGTGCACCACGAGTTTGCGCCCGCATCCGGTGCAGCCCACCAGGCCGTCGATCTCGACCGCGGCGGTGGTGACGGCGCGGCAGTGCGTACAGAACACGTCGCGGTGGGCGACCTCGGTGCTCGCGATCGTGATCTCGTCGTCGGCGATACCGTGCGCGAGGGCGTGGGCACGCACACGCAGATTCAGGTGAGCGGGGCCGGCGGTCATCAGTCGCCAGCCCACCACCGCG (double strand) [msmeg_4638 upstream]”, “no binding”.
For “GGGTCTCTCCAGGGAGGCGATGAGGGTGCGGGCGGCGACAGTGCCGGGAGCCGGATGATCGGCTGGGTCAATTACAGGCCCCGGCCATTGCCGTGTGGTTAGGGATGGACTACTTCTGAATTGCCGAAATCTCACAGCGGCAATGTGCTCGTAATAAGTGCAGCATGCGCCTTGACCTCAACCTCACTTGAGGTGCCAGGCTGGCTCTCATGACATGTGGACTCCAGTGGCCAGAGGCGGTAAACCGCCGCGAACCCGGGGGTAAACCCCCTGGGGACCTGGATCGGCACGCAGTAACTT (double strand) [msmeg_0572 upstream]” the value was “binds”; for “GGTGCCGACCGCCCCGACGACGAGCGCGGCCACCGCCGCGACGAACCCGACCACCAGTCTGCGCACCGGGACATTGTTGCCCACGAGACCGGCAAAGATTCGCTCGGCGCGGCTGACGAGCAGGTGAGGCGTTATCCTCGTAACACCAAAGGCCGGTAACGGCTACATGTCAGTCATGAATCCGGAAGATCACCCGACACCGGCGTCTGTGTTCTCCCGCAGAGATTCCTGACGAGCCGGGAGGACTTG (double strand) [glnR upstream]”, “no binding”.
“GGTGGCGGCGAGTTCGATACCGCTGTCGCTCAACGTGACCGGCGGCCACCCCAATCCGGTGAGGTCCACGAGCCTGCGCAGCTGAGGTTGGGGCTCGGAAAACAGCCAGGTCCCACCGGCCAACACCGCGTCGCCGGCCCCCAGCGGCCACACCTCCTCGCGACGGGTCGGCCGGTCCACCACCTCGACGGTGTTGAGGTCCATTCCCGCGACCGTAACCAAAGTGAACGCGCCGTGCACCATGAACCGTGGCACAACGCTCGGCGTGCGAACCGCCGCGATCTGTCCGATTCTTAGTCG (double strand) [msmeg_1293 upstream]”: the binding result is on record as “no binding”.
Turning to “GTCCGCCAAGTTACCGGCCGGAAAAATAAGGTGCGCGCCTCCCTTATCCTTGTTGGGACTCATTCCGGCTCGATCCCACATGCGAAAGGTTGATCAGGTGGCGCTCGTCGTACAGAAATACGGCGGATCCTCGGTGGCGGACGCCGAGAGGATCCGACGGGTCGCCGAGCGGATCGTCGAGACCAAGAAGGCGGGCAACGACGTCGTCGTCGTCGTCTCCGCGATGGGTGACACCACCGATGACCTGCTGGACCTGGCGCGCCAGGTGTCGCCCGCGCCGCCGCCGCGCGAGATGGACAT (double strand) [msmeg_6258 upstream]”, the binding entry is “no binding”.

The record behind these values is paper PMC4222082, “Nitrogen starvation-induced transcriptome alterations and influence of transcription regulator mutants in Mycobacterium smegmatis”.
